B1: TPR 5TU (parent)
chain: GGAUCUUCUCGAUCUAACAAAAAAGACAAAUCUGCCACAAAGCUUGAGAGCAUCUUCGGAUGCAGAGGCGGCAGCCUUCGGUGGCGCGAUAGCGCCAACGUUCUCAACUAUGACACGCAAAACGCGUGCUCCGUUGAAUGGAGUUUAUCAUG

This sample holds only a part of the variants without activity. Some results are limits rather than exact numbers.

In this data set the parent is B1. Kind of data set: polymerase ribozyme fitness, log enrichment relative to wild type (log ratio); higher = more active; in vitro selection for triplet polymerase activity. In outline:
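Mutant libraries of both subunits of a heterodimeric triplet polymerase ribozyme were PCR-built, transcribed, and selected once in triplicate, with frozen incubation at −7 °C and capture of gel-excised extended constructs on streptavidin beads before RT-PCR. Illumina sequencing of input and output libraries was filtered to genotypes with ≥10 input reads and ≥1 read per output. Fitness is the logarithm of genotype enrichment over wild-type enrichment, using inverse-variance-weighted replicate averages. The logarithm is base 2.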
With GGAUCUUCUCGAUCUAACGUAAAAGACAAAUCUGCCACAAAGCUUGAGAGCAUCAUCGGAUGCAGAGGCGGCAGCCUUCGGUGGCGAGAUAGCGCCAACGUUCUCAACUAUGACACGCAAAACGCGUGCUUCGUUGAAUGGAGUUUAACAUG [A19G A20U U55A C87A C131U U148A], the “polymerase ribozyme fitness (log ratio)” value is at most -4.2.
Next, GGAUCUUCUCGAUCUAACCAAAAAGACAAAUCUGCCACAAAGCUUGAGAGCAUCGUCGGAUGCAGAGGCGGCAGCCUUCGGUGGCGCGAUAGUGCCAACGUUCUCAACUAUGACACGCAAAACGCGUGCUCCGUUUAAUGGAGUUUAUCAUG [A19C U55G C93U G136U]: -3.02; GGAUCUUCUCGAUCUAACCAAAAAGACAAAUCUGCCACAAAGCUUGAGAGCAUCUUCGAAUGCAGAGGCGGCAGCCUUCGGUGUCGCGAUAGCGCCAGCGUUCUCAACUAUGACUCGCAAAACGCGUGCUCCGUUGAAUGGAGUUUAUCAUG [A19C G59A G84U A98G A115U]: -3.52.
For the variant GGAUCUUCUCGAUCUAACCAAAAAGACAAAUCAGCCACAAAGCUUGAGAGCAUCAUCGGAUGCAGAGGCGGCAGCCGUCGGUGGCGCGAUAGCGCCAACGUUCUCAACUAUGACACGCAAAAGGCGUGCUCCGUUGAAUGGAGUUUAUCAUG [A19C U33A U55A U77G C123G], the “polymerase ribozyme fitness (log ratio)” value is at most -4.2.
Then GGAUCUUCUCGAUCUAACCAAAAAGACAAAUCUGCCACAAAGCUUGAGAGCAUCUUCGAAUGCAGAGGCGGCAGCGUUCGGUGGCGUGAUAGCGCCAACGUUCUCAACUAUGACACGCAAAACGCGUGCUCCGUUGAAUGGAGUUUAUCAUG [A19C G59A C76G C87U], with at most -4.2.
For the variant GGAUCUUCUCGAUCUAACCAAAAAGACAAAUUUGCCGCAAAGCUUGAGAGCGUCUUCGGAUGCAGAGGCGGCAGCCUUCGGUGGCGGGUAAGCGCCAACGUUCUCAACUAUGACACGCAAAACGGGUGCUCCGUUGAAGGGAGUUUAUCAUG [A19C C32U A37G A52G C87G A89U U90A C125G U139G], the “polymerase ribozyme fitness (log ratio)” value was at most -4.2.
Next, GGAUCUUCUCGAUCUAACCAAAAAGACAAAUCUGCCACAAAGCUUGAGAGCAUCUUCGGAUGCAGAGGCGGCAGCCUUCGGUGGCGCGAUAGCGCUAACGUUCUCAACUAUGACACGCAAAACCCGUGCUCCGUUGAAUGGAGUUUAUCAUG [A19C C96U G124C]: -0.582; GGAUCUUCUCGAUCUAACCAAAAAGACAAAUCUGCCACAAAGCUUGAGAGCAUGUUCGGAUGCAGAGGCGGCAGCCUUCGGUGGCGCGAUAGCUCCAACGUUCUCAACUAAGACCCGCAAAACGUGUGCUCCGUUGAAUGGAGUUUAUCAUG [A19C C54G G94U U111A A115C C125U]: at most -4.2.
Consider GGAUCUUCUCGAUCUAACCAAAAAGACAAAUCUGCCACAAAGCUUGAGAGCAUCUUCCGAUGCAGAGGCGGCAGCCUUCGGUGGCGCUAUAGCGCCAGCGUUGUCAACUAUGACACGCAAAACGCGUGCUCCGUUGAAUGGAGUUUAUCAUG [A19C G58C G88U A98G C103G], for which the “polymerase ribozyme fitness (log ratio)” value is at most -4.2.
Next, GGAUCUUCUCGAUCUAACCAAAAAGACAAAACUGCCACAAAGCUUGAGAGCAUCUUCGGAUGCAGAGGCGGCAGCCUUCGGUGGCGCGAUAUCGCCAACGUUCUCAACUAUGACACGCAAAACGCGUGCUCCGUUGAAUGGAGUUUAUCAUG [A19C U31A G92U]: 0.391.
Then GGAUCUUCUCGAUCUAACGAAAGAGACAAAUCUGCCACAAAGCUUGAGAGCAUCUUCGGAUGCAGAGGCGGCAGCCUUCGGUGGCGCGAUAGCGCCAACGUUCUCAACUUUGACACGCAAAACGCGUGCUCCGUUGAAUGGAGUUUAUCAUG [A19G A23G A110U], with at most -4.2.
With GGAUCUUCUCGAUCUAACGAAAAAGUCAAAUCUGCCACAAAGCUAGAGAGCUUCUUCGGAAGCAGAGGCCGCAGCCUUCGGUGGGGCGAUAGCGCCAACGUUCUCAACUAUGACUCGCAAAACGCGUGCUCCGUUGAAUGUAGUUUAUCAUG [A19G A26U U45A A52U U61A G70C C85G A115U G141U], the “polymerase ribozyme fitness (log ratio)” value was at most -4.2.
Then GGAUCUUCUCGAUCUAACCAAAAAGACAAAUCUGUCACAAAGCUUGAGAGCCACUUCGGAUGCAGAGGCGGCAGCCUUAGGUGGCGCGAUAGCGCCUGCGUUCUCAACUAUGACACGAAAAACGCGUGCUCCGUUGAAGGGAGUUUGUCAUG [A19C C35U A52C U53A C79A A97U A98G C118A U139G A147G], with at most -4.2.
Turning to GGAUCUUCUCGAUCUAACCAAAAAGACAAAUCUGCCACAAAGCUUGAGAGCAUCUUCGGAUGCAUAGGCGGCUGCCUUCGGUGGCGCAAUAGCGCCAACGUUCUCAACUAUGAAACGCAAAACGCGUGCUCCGUUGAAUGGAGUUUACCAUG [A19C G65U A73U G88A C114A U148C], the “polymerase ribozyme fitness (log ratio)” value is at most -4.2.
Next, GGAUCUUCUCGAUCUAACCAAAAAGACAAAUCUGCCACAAAGCUUGAGAGCAUCUACGGAUGCAAAGGCGGCAGCCUUCGGUGGCGUGAUAGCGCCUACGUUCUCAACUAUGACACGCAAAACGCGUGCUCCGUUGAAUGGAGUUUAUCAUG [A19C U56A G65A C87U A97U]: -1.81; GGAUCUUCUCGAUCUAACCAAAAAGACAAAUCUGCCACAAAGCUUGAGAACAUCUUCGGAUGCAGAGGCGGCAGCCUUCGGUGGCGCGAUAGCGCCAACGUUCUCAACUAUGACACGCAAAACGCGUGCUCCGUUGAAUGGAGUUUAUCAUG [A19C G50A]: -1.01; GGAUCUUCUCGAUCUAACCAAAAAGACAAAUCUGCCACAAAGCUUGAGAGCAUCUUAGGAUGCAGAGGCGGCAGCCUUCGGUGGCGCGAUAGCGCCAACGUUCUCAACUAUGACACGCAAAACGCGUGCUCCGUUGAAUGGAGUUUAUCAUG [A19C C57A]: 0.797.
Turning to GGAUCUUCUCGAUCUAACCAAAAAGAGCAAUCUGCCACAAAGCUUGAGAGCAUCUUCCCAUGCCGAGGCGGCAGCCUUCGGUGGUGCGAUAGCGCCAACGUUCUCAACUAUGACACGCAAAACGCGUGCUCCGUUGAAUGGAGUUUAUCAUG [A19C C27G A28C G58C G59C A64C C85U], the “polymerase ribozyme fitness (log ratio)” value was at most -4.2.
Next, GGAUCUUCUCGAUCUAACCAAAAAGACAAAUCUGACACAAAGCUUGAGAGCAUCUUCGGAUGCAGAGGCGGCAGCCUUCGGUGGCGCGAUAGCGCCAACGUUCUCAACUAUGACACGCAAAACGCGUGCUCCGUUGAAUGGAGUUUAUCAUG [A19C C35A]: -3.08.

Values taken from the RNAGym collection of RNA variant scans (doi:10.1073/pnas.2313332121).
